Among the data in the Immune Epitope Database (IEDB) are Kd values, retold here.

The target in one assay is HLA-A*01:01. Description: IEDB peptide-MHC binding, purified MHC/direct/fluorescence; filed as Kd, often an IC50 or EC50 that approximates it; ≥ and ≤ were set here for values at or beyond the usual limits of such assays.
The target in assay [1] is HLA-A*02:01. The assay is described as above. As to conditions: source organism: Giardia lamblia ATCC 50803.
The next assay concerns the target HLA-A*03:01. Described as above. As to conditions: source organism: Giardia lamblia ATCC 50803.
Assay [2] has as its target HLA-A*11:01. Described as above. Particulars: source organism: Giardia lamblia ATCC 50803.
A further assay has as its target HLA-A*26:01. The assay is described as above.
The target in the next assay is HLA-A*30:01. The description is as above. Particulars: source organism: Giardia lamblia ATCC 50803.
In a further assay the target is HLA-A*31:01. The assay is described as above.
The target of the next assay is HLA-A*69:01. Described as above.
Another assay has as its target HLA-B*07:02. The assay is described as above.
The target in another assay is HLA-B*08:01. The description is as above.
The target of assay [3] is HLA-B*15:01. Described as above. Particulars: source organism: Giardia lamblia ATCC 50803.
The target in the next assay is HLA-B*27:05. Described as above. As to conditions: source organism: Giardia lamblia ATCC 50803.
The target in another assay is HLA-B*40:01. Described as above. As to conditions: source organism: Giardia lamblia ATCC 50803.
In the next assay the target is HLA-B*44:02. The description is as above. Particulars: source organism: Giardia lamblia ATCC 50803.
A further assay deals with HLA-B*58:01. The assay is described as above.
The target in another assay is HLA-B*73:01. The assay is described as above. Particulars: source organism: Giardia lamblia ATCC 50803.
A further assay addresses HLA-B*51:01. The description is as above. Particulars: source organism: Homo sapiens.
The target of another assay is HLA-C*05:01. Described as above. Particulars: source organism: Homo sapiens.
The target in another assay is HLA-C*07:02. The assay is described as above. As to conditions: source organism: Homo sapiens.
The target of the next assay is HLA-A*32:07. Briefly: IEDB peptide-MHC binding, purified MHC/competitive/fluorescence; filed as Kd, often an IC50 or EC50 that approximates it; ≥ and ≤ were set here for values at or beyond the usual limits of such assays. Particulars: source organism: Homo sapiens.
The target in a further assay is HLA-A*32:15. The assay is described as above. Particulars: source organism: Homo sapiens.
The next assay addresses HLA-A*68:23. The assay is described as above. Particulars: source organism: Homo sapiens.
The target in another assay is HLA-B*15:42. Described as above. Particulars: source organism: Homo sapiens.
In a further assay the target is HLA-B*40:13. The description is as above. As to conditions: source organism: Homo sapiens.
In a further assay the target is HLA-B*45:06. The assay is described as above. Particulars: source organism: Homo sapiens.
The next assay has as its target HLA-B*83:01. The assay is described as above. Particulars: source organism: Homo sapiens.
Assay [4] addresses HLA-C*06:02. The description is as above. Particulars: source organism: Homo sapiens.
A further assay concerns the target HLA-A*24:03. Description: IEDB peptide-MHC binding, purified MHC/direct/fluorescence; filed as Kd, often an IC50 or EC50 that approximates it; ≥ and ≤ were set here for values at or beyond the usual limits of such assays.
A further assay concerns the target HLA-C*04:01. The assay is described as above. Particulars: source organism: Nostoc punctiforme PCC 73102.
A further assay concerns the target HLA-A*23:01. Described as above. As to conditions: source organism: Brucella abortus 2308.
For a further assay, the target named is HLA-B*08:03. The assay is described as above. Particulars: source organism: Brucella suis 1330.
Another assay deals with HLA-B*15:09. The description is as above. Particulars: source organism: Brucella suis 1330.
The next assay concerns the target HLA-B*39:01. The description is as above. Particulars: source organism: Brucella suis 1330.
Another assay concerns the target HLA-B*57:01. Described as above. Particulars: source organism: Brucella abortus 2308.
Assay [5] concerns the target HLA-C*06:02. The assay is described as above. Particulars: source organism: Brucella abortus S19.
For a further assay, the target named is HLA-C*14:02. Described as above. Particulars: source organism: Brucella abortus S19.
Another assay has as its target HLA-C*15:02. The description is as above. Particulars: source organism: Brucella abortus S19.
Assay [6] concerns the target HLA-A*02:01. Briefly: IEDB peptide-MHC binding, purified MHC/competitive/fluorescence; filed as Kd, often an IC50 or EC50 that approximates it; ≥ and ≤ were set here for values at or beyond the usual limits of such assays. As to conditions: source organism: Brucella abortus S19.
The target of another assay is HLA-A*02:03. Described as above. As to conditions: source organism: Brucella abortus S19.
The target in a further assay is HLA-A*02:06. The description is as above. Particulars: source organism: Brucella abortus S19.
In assay [7] the target is HLA-A*11:01. The assay is described as above. Particulars: source organism: Brucella abortus S19.
The target of another assay is HLA-A*26:02. Described as above. Particulars: source organism: Brucella abortus S19.
For another assay, the target named is HLA-A*68:02. Described as above. Particulars: source organism: Brucella abortus S19.
Assay [8] has as its target HLA-B*15:01. The assay is described as above. Particulars: source organism: Brucella abortus S19.
Another assay deals with HLA-B*15:17. Described as above. Particulars: source organism: Brucella abortus S19.
A further assay has as its target HLA-B*18:01. Described as above. Particulars: source organism: Brucella abortus S19.
[9] abbreviates: source organism: Giardia lamblia ATCC 50803.
[10] abbreviates: source organism: Brucella abortus 2308.
Where [11] appears, read: source organism: Brucella suis 1330.

A word on the Kd: it is the constant that tells how readily two partners part at equilibrium. Read a high Kd as a looser complex. Consider IRNLVKRYK, for which the Kd with HLA-A*01:01 (setting [9]) was not below 20 µM; with HLA-A*02:01 [1] it was not below 20 µM; in the assay with HLA-A*03:01, not below 20 µM; in the assay with HLA-A*11:01 [2] it was not below 20 µM; with HLA-A*26:01 (setting [9]), not below 20 µM; with HLA-A*30:01, 0.0508 µM. Moreover, the dissociation constant Kd with HLA-A*31:01 (setting [9]) is not below 20 µM; in the assay with HLA-A*69:01 (setting [9]), not below 20 µM; in the assay with HLA-B*07:02 (setting [9]) it was not below 20 µM; with HLA-B*08:01 (setting [9]) it was not below 20 µM; with HLA-B*15:01 [3], not below 20 µM; with HLA-B*27:05 it was 1.21 µM. For the same sequence, the Kd was not below 20 µM with HLA-B*40:01, not below 20 µM with HLA-B*44:02, not below 20 µM with HLA-B*58:01 (setting [9]) and 3.5 µM with HLA-B*73:01.

Take MAMGILHTI: the Kd is 0.168 µM with HLA-B*51:01; not below 20 µM in the assay with HLA-C*05:01; 3.31 µM with HLA-C*07:02; 0.0047 µM with HLA-A*32:07; 0.0202 µM with HLA-A*32:15; 0.0065 µM with HLA-A*68:23. The Kd with HLA-B*15:42 is not below 5 µM; in the assay with HLA-B*40:13, 0.213 µM; in the assay with HLA-B*45:06, not below 5 µM; with HLA-B*83:01, 3.6 µM; with HLA-C*06:02 [4], 1.78 µM.

As to YWPTEGYEF, the Kd with HLA-A*24:03 (source organism: Escherichia coli O157:H7) was not above 0.001 µM; with HLA-C*04:01 it was 0.222 µM.

For the sequence YWMGGTTYF, the Kd is not below 20 µM in the assay with HLA-A*01:01 (setting [10]); 0.0535 µM with HLA-A*23:01; not above 0.001 µM with HLA-A*24:03 (setting [10]); not below 20 µM with HLA-A*26:01 (setting [11]); not below 20 µM with HLA-A*31:01 (setting [10]); not below 20 µM with HLA-A*69:01 (setting [10]). For the same sequence, the Kd with HLA-B*07:02 (setting [10]), with HLA-B*08:01 (setting [11]), in the assay with HLA-B*08:03, with HLA-B*15:09, with HLA-B*39:01 and in the assay with HLA-B*57:01 was not below 20 µM throughout. In addition, the Kd with HLA-B*58:01 (setting [10]) was not below 20 µM; with HLA-C*06:02 [5], not below 20 µM; in the assay with HLA-C*14:02, not above 0.001 µM; in the assay with HLA-C*15:02, not below 20 µM; with HLA-A*02:01 [6] it was 1.12 µM; with HLA-A*02:03 it was 4.23 µM. Besides, the Kd with HLA-A*02:06 is 0.797 µM; with HLA-A*11:01 [7], 2.07 µM; in the assay with HLA-A*26:02 it was not below 20 µM; with HLA-A*68:02, not below 20 µM; in the assay with HLA-B*15:01 [8], 1.04 µM; in the assay with HLA-B*15:17, 1.02 µM. In the assay with HLA-B*18:01, the Kd was not below 20 µM.
